The results in this text go back to the RNAGym collection of RNA variant scans (doi:10.7554/elife.90254).

B1: LINE1-full (parent)
chain: UACGUAGGUGGUUUUCCCCUGAUAGUGCUAAGGGGGCCUGGAAGUUUGGACUGGGCAGAGCUCAACACAGCGUGGCAAAGUGGCUGUGGCUAGACUGCCUCUCUGGAUUCCUCGUCACUCAGCAGGGCAUCUCUGAGAGAAAUGCC

In the data set the parent is B1. The data set is described as follows: self-cleavage, relative activity (ratio to wild type); higher = more cleavage; in vitro, sequencing; the parent is a self-cleaving ribozyme.
As for UACGUAGGUGGUUUUCCCCUGAUAGUGCUUAGGGGGCCUGGAAGUUCGGACUGGGCAGAGCUCAACACAGCGUGGCAAAGUGGCUGUGGCUAGACUGCCUCUCUGGAUUCCUCGUCACUCAGCAGGGCAUCUCUGAGAGAAAUGCC [A30U U47C], the self-cleavage was found to be 1.07.
In the case of UACGUAGGUGGUUUUCCCCUGAUAGUGCUUAGGGGGCCUGGAAGUUGGGACUGGGCAGAGCUCAACACAGCGUGGCAAAGUGGCUGUGGCUAGACUGCCUCUCUGGAUUCCUCGUCACUCAGCAGGGCAUCUCUGAGAGAAAUGCC [A30U U47G], the self-cleavage amounted to 0.8.
As for UACGUAGGUGGUUUUCCCCUGAUAGUGCUUAGGGGGCCUGGAAGUUUGGACUGGGCAGAGCUCAACACAGCGUGGCAAAGUGGCUGUGGCUAGACUGCCUCUCUGGAUUCCUCGCCACUCAGCAGGGCAUCUCUGAGAGAAAUGCC [A30U U115C], the self-cleavage came to 1.16.
The value for UACGUAGGUGGUUUUCCCCUGAUAGUGCUUAGGGGGCCUGGAAGUUUGGACUGGGCAGAGCUCAACACAGCGUGGCAAAGUGGCUGUGGCUAGACUGCCUCUCUGGAUUCCUCCUCACUCAGCAGGGCAUCUCUGAGAGAAAUGCC [A30U G114C] was 1.25.
As to UACGUAGGUGGUUUUCCCCUGAUAGUGCUUAGGGGGCCUGGAAGUUUGGACUGGGCAGAGCUCAACACAGCGUGGCAAAGUGGCUGUGGCUAGACUGCCUCUCUGGAUUCCUCGUCACUCCGCAGGGCAUCUCUGAGAGAAAUGCC [A30U A121C], the self-cleavage came out at 0.55.
The value for UACGUAGGUGGUUUUCCCCUGAUAGUGCUUAGGGGGCCUGGAAGUUUGGACUGGGCAGAGCUCAACACAGCGUGGCAAAGUGGCUGUGGCUAGACUGCCUCUCUGGAUUCCUCGUCACUCGGCAGGGCAUCUCUGAGAGAAAUGCC [A30U A121G] was 1.08.
Regarding UACGUAGGUGGUUUUCCCCUGAUAGUGCUUAGGGGGCCUGGAAGUUUGGACUGGGCAGAGCUCAACACAGCGUGGCAAAGUGGCUGUGGCUAGACUGCCUCUCUGGAUUCCUCGUCACUCAGCAGGGCAUCUCUGAGAGAAGUGCC [A30U A142G], the self-cleavage is 1.28.
With UACGUAGGUGGUUUUCCCCUGAUAGUGCUUAGGGGGGCUGGAAGUUUGGACUGGGCAGAGCUCAACACAGCGUGGCAAAGUGGCUGUGGCUAGACUGCCUCUCUGGAUUCCUCGUCACUCAGCAGGGCAUCUCUGAGAGAAAUGCC [A30U C37G], the self-cleavage turned out to be 0.81.
Turning to UACGUAGGUGGUUUUCCCCUGAUAGUGCUUAGGGGGCCUGGAAGUUUGGACUGGGCAGAGCUCAACACAGCGUGGCAAAGUGGCUGUGGCUAGACUGCCUCUCUGGAUUCCUCGUCACUCAGCGGGGCAUCUCUGAGAGAAAUGCC [A30U A124G], the self-cleavage was 0.84.
In the case of UACGUAGGUGGUUUUCCCCUGAUAGUGCUUAGGGGGCCUUGAAGUUUGGACUGGGCAGAGCUCAACACAGCGUGGCAAAGUGGCUGUGGCUAGACUGCCUCUCUGGAUUCCUCGUCACUCAGCAGGGCAUCUCUGAGAGAAAUGCC [A30U G40U], the self-cleavage turned out to be 0.97.
As to UACGUAGGUGGUUUUCCCCUGAUAGUGCUUAGGGGGCCUGGAAGUUUGGACUGGGCAGAGCUCAACACAGCGUGGCAAAGUGGCCGUGGCUAGACUGCCUCUCUGGAUUCCUCGUCACUCAGCAGGGCAUCUCUGAGAGAAAUGCC [A30U U85C], the self-cleavage amounted to 0.1.
As to UACGUAGGUGGUUUUCCCCUGAUAGUGCUUAGGGGGCCUGGAAGUUUGGACUGGGCAGAGCUCAACACAGCGCGGCAAAGUGGCUGUGGCUAGACUGCCUCUCUGGAUUCCUCGUCACUCAGCAGGGCAUCUCUGAGAGAAAUGCC [A30U U73C], the self-cleavage was found to be 1.8.
UACGUAGGUGGUUUUCCCCUGAUAGUGCUUAGGGGGCCUGGAAGUUUGGACUGGGCAGAGCUCAACACAGCGAGGCAAAGUGGCUGUGGCUAGACUGCCUCUCUGGAUUCCUCGUCACUCAGCAGGGCAUCUCUGAGAGAAAUGCC [A30U U73A]: the self-cleavage turned out to be 2.55.
The figure for UACGUAGGUGGUUUUCCCCUGAUAGUGCUUAGGGGGCCUGGAAGUUUGGACUGGGCAGAGCUCAACACAGCGUGGCAAAGCGGCUGUGGCUAGACUGCCUCUCUGGAUUCCUCGUCACUCAGCAGGGCAUCUCUGAGAGAAAUGCC [A30U U81C] is 1.52; for UACGUAGGUGGUUUUCCCCUGAUAGUGCUUAGGGGGCCUGGAAGUUUGGACUGGGCAGAGCUCAACACAGCAUGGCAAAGUGGCUGUGGCUAGACUGCCUCUCUGGAUUCCUCGUCACUCAGCAGGGCAUCUCUGAGAGAAAUGCC [A30U G72A] it is 1.24.
The value for UACGUAGGUGGUUUUCCCCUGAUAGUGCUUAGGGGGCCUGGAAGUUUGGACUGGGCAGAGCUCAACACAGCGUGGCAAAGUGGCUGUGGCUAGACUGCCUCUCUGGAUUCCUUGUCACUCAGCAGGGCAUCUCUGAGAGAAAUGCC [A30U C113U] was 0.88; that for UACGUAGGUGGUUUUCCCCUGAUAGUGCUUAGGGGGCCUGGAAGUUUGUACUGGGCAGAGCUCAACACAGCGUGGCAAAGUGGCUGUGGCUAGACUGCCUCUCUGGAUUCCUCGUCACUCAGCAGGGCAUCUCUGAGAGAAAUGCC [A30U G49U] was 0.85.
As to UACGUAGGUGGUUUUCCCCUGAUAGUGCUUAGAGGGCCUGGAAGUUUGGACUGGGCAGAGCUCAACACAGCGUGGCAAAGUGGCUGUGGCUAGACUGCCUCUCUGGAUUCCUCGUCACUCAGCAGGGCAUCUCUGAGAGAAAUGCC [A30U G33A], the self-cleavage was determined as 1.23.
On to UACGUAGGUGGUUUUCCCCUGAUAGUGCUUAGGGGGCCUGGAAGUUUGGACUGGGCAGAGCUCAACACAGCGUGGCAAAGUGGCUGUGUCUAGACUGCCUCUCUGGAUUCCUCGUCACUCAGCAGGGCAUCUCUGAGAGAAAUGCC [A30U G89U], for which the self-cleavage turned out to be 0.03.
The figure for UACGUAGGUGGUUUUCCCCUGAUAGUGCUUAGGGGGCCUGGAAGAUUGGACUGGGCAGAGCUCAACACAGCGUGGCAAAGUGGCUGUGGCUAGACUGCCUCUCUGGAUUCCUCGUCACUCAGCAGGGCAUCUCUGAGAGAAAUGCC [A30U U45A] is 1.14; for UACGUAGGUGGUUUUCCCCUGAUAGUGCUUAGGGGGCCUGGAAGUUUGGACUGGGCAGAGGUCAACACAGCGUGGCAAAGUGGCUGUGGCUAGACUGCCUCUCUGGAUUCCUCGUCACUCAGCAGGGCAUCUCUGAGAGAAAUGCC [A30U C61G] it is 0.08.
With UACGUAGGUGGUUUUCCCCUGAUAGUGCUUAGGGGGCCGGGAAGUUUGGACUGGGCAGAGCUCAACACAGCGUGGCAAAGUGGCUGUGGCUAGACUGCCUCUCUGGAUUCCUCGUCACUCAGCAGGGCAUCUCUGAGAGAAAUGCC [A30U U39G], the self-cleavage stood at 1.46.
Consider UACGUAGGUGGUUUUCCCCUGAUAGUGCUUAGGGGGCCCGGAAGUUUGGACUGGGCAGAGCUCAACACAGCGUGGCAAAGUGGCUGUGGCUAGACUGCCUCUCUGGAUUCCUCGUCACUCAGCAGGGCAUCUCUGAGAGAAAUGCC [A30U U39C], for which the self-cleavage is 0.85.
As to UACGUAGGUGGUUUUCCCCUGAUAGUGCUUAGGGGGCCUGGAAGUUUGGACUGGGCAGAGCUCAACACAGCGUGGCAAAGUGGCUGUGGCUAGACUGCCUCUCUGGAUUCCUCGUCACUCAGCAGGGCAUCUCUGAGAGGAAUGCC [A30U A140G], the self-cleavage was found to be 1.76.
For UACGUAGGUGGUUUUCCCCUGAUAGUGCUUAGGGGGCCUGGAAGUUUGGACUGGGCAGAGCUCAACACAGCGUGGCAAAGUGGCUGUGGCUAGACUGCCUCUCUGGAUUCCUCGUCACUCAGCAGGGCAUCUCUGAGAGUAAUGCC [A30U A140U], the self-cleavage was determined as 0.67.
Turning to UACGUAGGUGGUUUUCCCCUGAUAGUGCUUAGGGGGCAUGGAAGUUUGGACUGGGCAGAGCUCAACACAGCGUGGCAAAGUGGCUGUGGCUAGACUGCCUCUCUGGAUUCCUCGUCACUCAGCAGGGCAUCUCUGAGAGAAAUGCC [A30U C38A], the self-cleavage came to 0.35.
In the case of UACGUAGGUGGUUUUCCCCUGAUAGUGCUUAGGGGGCCUGGAAGUUUGGACUGGGCAGAGCUCAACACAGCGUGGCAAAGUGGCUGUGGCUAGAAUGCCUCUCUGGAUUCCUCGUCACUCAGCAGGGCAUCUCUGAGAGAAAUGCC [A30U C95A], the self-cleavage came to 0.03.
The figure for UACGUAGGUGGUUUUCCCCUGAUAGUGCUUAGGGGGCCUGGAAGUUUGGACCGGGCAGAGCUCAACACAGCGUGGCAAAGUGGCUGUGGCUAGACUGCCUCUCUGGAUUCCUCGUCACUCAGCAGGGCAUCUCUGAGAGAAAUGCC [A30U U52C] is 1.09.
On to UACGUAGGUGGUUUUCCCCUGAUAGUGCUUAGGGGGCCUGGAAGUUUGGACUGGGUAGAGCUCAACACAGCGUGGCAAAGUGGCUGUGGCUAGACUGCCUCUCUGGAUUCCUCGUCACUCAGCAGGGCAUCUCUGAGAGAAAUGCC [A30U C56U], for which the self-cleavage was determined as 0.04.
For UACGUAGGUGGUUUUCCCCUGAUAGUGCUUAGGGGGCCUGGAAGUUUGGACUGGGCAGAGCUCAACACAGCGUGGCAAAGUGGCUGUGGCUAGACUGCCUCUCUGGAUUCCUCGUCACCCAGCAGGGCAUCUCUGAGAGAAAUGCC [A30U U119C], the self-cleavage was 0.5.
Regarding UACGUAGGUGGUUUUCCCCUGAUAGUGCUUAGGGGGCCUGGAAGUUUGGACUGGGCAGAGCUCAACACAGCGUGGCAAAGUGGCUGUGGCUAGACUGCCUCACUGGAUUCCUCGUCACUCAGCAGGGCAUCUCUGAGAGAAAUGCC [A30U U102A], the self-cleavage was found to be 0.58.
On to UACGUAGGUGGUUUUCCCCUGAUAGUGCUUAGGGGGCCUGGAAGUUUGGACUGGGCAGAGCUCAACACAGCGUGGCAAAGUGGCUGUGGCUAGACUGCCUCCCUGGAUUCCUCGUCACUCAGCAGGGCAUCUCUGAGAGAAAUGCC [A30U U102C], for which the self-cleavage was 0.75.
Regarding UACGUAGGUGGUUUUCCCCUGAUAGUGCUUAGGGGGCCUGGAAGUUUGGACUGUGCAGAGCUCAACACAGCGUGGCAAAGUGGCUGUGGCUAGACUGCCUCUCUGGAUUCCUCGUCACUCAGCAGGGCAUCUCUGAGAGAAAUGCC [A30U G54U], the self-cleavage turned out to be 0.84.
The value for UACGUAGGUGGUUUUCCCCUGAUAGUGCUUAGGGGGCCUGGAAGUUUGGACUGGGCAGAGCUCAACACAGCGUCGCAAAGUGGCUGUGGCUAGACUGCCUCUCUGGAUUCCUCGUCACUCAGCAGGGCAUCUCUGAGAGAAAUGCC [A30U G74C] was 1.27; that for UACGUAGGUGGUUUUCCCCUGAUAGUGCUUAGGGGGCCUGGAAGUUUGGACUGGGCAGAGCUCAACACAGCGUGGCAAAGUGGCUGUGGCUAGACUGCCUCUCUGGAUCCCUCGUCACUCAGCAGGGCAUCUCUGAGAGAAAUGCC [A30U U109C] was 1.33; that for UACGUAGGUGGUUUUCCCCUGAUAGUGCUUAGGAGGCCUGGAAGUUUGGACUGGGCAGAGCUCAACACAGCGUGGCAAAGUGGCUGUGGCUAGACUGCCUCUCUGGAUUCCUCGUCACUCAGCAGGGCAUCUCUGAGAGAAAUGCC [A30U G34A] was 1.13.
As for UACGUAGGUGGUUUUCCCCUGAUAGUGCUUAGGGGGCCUGGAAGUUUGGACUGGGCAGAGCUCAACACAGCGUGGCAAAGUGGCUGUGGCUAGACUGCCUCUCUGGAUUCCUCGUCACUCAGCAGGGCGUCUCUGAGAGAAAUGCC [A30U A129G], the self-cleavage was found to be 0.58.
On to UACGUAGGUGGUUUUCCCCUGAUAGUGCUUAGGGGGCCUGGAAGUUUGGACUGGGCAGAGCUCAACACAGCGUGGCAAAGUGGCUGUGGCUAGACUGCCUCUCUGGAUUCCUCGUCACUCAGCAGGGCUUCUCUGAGAGAAAUGCC [A30U A129U], for which the self-cleavage was 1.38.
As for UACGUAGGUGGUUUUCCCCUGAUAGUGCUUAGGGGGCCUGGAAGUUUGGACUGGGCAGAGCUCAACACAGCGUGGCAAAGUGGCUGUGGCUAGACUGCCUCUCUGGAUUCCUCGUCACUCAGCAGGGCAUCUCAGAGAGAAAUGCC [A30U U134A], the self-cleavage was 0.68.
